The data set can be described thus: soluble on expression in E. coli; label from the status in PepcDB or PDB records.
On to “MGSDKIHHHHHHMIVEKRRFPSPSQHVRLYTICYLSNGLRVKGLLAEPAEPGQYDGFLYLRGGIKSVGMVRPGRIIQFASQGFVVFAPFYRGNQGGEGNEDFAGEDREDAFSAFRLLQQHPNVKKDRIHIFGFSRGGIMGMLTAIEMGGQAASFVSWGGVSDMILTYEERQDLRRMMKRVIGGTPKKVPEEYQWRTPFDQVNKIQAPVLLIHGEKDQNVSIQHSYLLEEKLKQLHKPVETWYYSTFTHYFPPKENRRIVRQLTQWMKNR”, for which the “soluble on expression in E. coli” value is “not soluble”. Turning to “MDEEDPINPCFQTISMGGGYVSGEIYRSDFEINDDARCIITTQSSAKAYKTVDGKTSEQHTNITLGKNSILEYISDNVIVYEDGKFAQFNNFKMDSSATLIYTECFGPGSPHGSAYQYEKMYLNTKIYYDDKLVLFDNLKFQPRKNDESAFGIMDGYHYCGTMIVINQQVIEDDVIKIRDLVKEKYPDMDMIFGVSRMDIPGLGLRVLANTYYHVEKINAVAHDYFRRKLFNKKPLILRKPLEHHHHHH”, the “soluble on expression in E. coli” value was “not soluble”. “MAHHHHHHMLPAGLTLNTLTPLAQIPVELQRLARCAINAHRNAYCPYSKFAVGAALLHKDLKITAGCNYENCTLKGCCAELCAIVKGNSEGRRTATAVAVYGCSKAPDVMNLPPPDTVTPPCGFCRQSLVEVADLSNNYEDFLVVLVTLDKERVKLVKLCDIIPLKFGPSNIGMDLSQLAKDVELGNEDEKK”: the “soluble on expression in E. coli” value is “not soluble”. To “MGSDKIHHHHHHMSDSIYSIGTQGQPWTDEDKDLWLSKQVIKRSYQDEVLSKFESVTSSFDMIQYGSLSIDESRYPLYAMRSKNWQSKNKTVLVTGGVHGYETSGVQGAIRFLETSAKDFSQRFNIIVVPCVSPWGYETINRWNNEAIDPNRSFYLDSPAQESAALMSFINELDVNIAMHIDLHETTDTDNSEFRPALAARDAIEQKNWNIPDGFYLVGDSTKPAADFQGAINQAVAKVTHIAPEDSNGKLIGVDIEQFGVINYAGRELGLCMGLTDAPYVTTTEVYPDSPLVDDENCITAQVAAISAAITFI” belongs “not soluble”. To “MSQVQSGILPEHCRAAIWIEANVKGEVDALRAASKTFADKLATFEAKFPDAHLGAVVAFGNNTWRALSGGVGAEELKDFPGYGKGLAPTTQFDVLIHILSLRHDVNFSVAQAAMEAFGDCIEVKEEIHGFRWVEERDLSGFVDGTENPAGEETRREVAVIKDGVDAGGSYVFVQRWEHNLKQLNRMSVHDQEMVIGRTKEANEEIDGDERPETSHLTRVDLKEDGKGLKIVRQSLPYGTASGTHGLYFCAYCARLHNIEQQLLSMFGDTDGKRDAMLRFTKPVTGGYYFAPSLDKLMAL” belongs “soluble”; to “MIDFRPFYQQIATSHLSAWLETLPLQLKQWEKTAHSDYAKWAKIATSMPTSPTSINLTDKVEAVLAEALPEGEKQYLIYRLKQLMPWRKGPYHLHGVHIDTEWRSDFKWQRVLPHLAPLKDRTILDVGCGNGYHMWRMVGEDAQMVVGIDPTELFLCQFEAVRQLLGNDRRANLIPLGLEQMQPLAAFDTVFSMGVLYHRKSPLDHLSQLKAQLVKGGELVLETLIIDGDINDILTPADRYAKMKNVYFIPSVAALINWLKKIGFKNARCVDQSVTTLAEQRKTEWLENESLVDFLDPTDQRKTIEGLPAPKRAVILANA”, “not soluble”; to “MGSDKIHHHHHHMADRPHAEEGQTAGPAGQPGVAAWLDNQPPKWRPVASAIGSLELMTFFQFVLAAVLMSALPAHGADRIIYLTFDDGPLNGTSNILDVLEAEQVPATLFMVGMHAEAGASNKALVRRAKAMPLVTIGNHSYTHAYNHYRHFYGDTEGVVADMLMANVVLGLKPAVHARLPGRDVFRLPSMSKDDNSLGPAQAGREDPDYEFVAASGFYLYGWDHEWVHKDSGEPVQSVDHLVSEIDHLFGYGHFAKPGKLILLMHDEMFQDGFDGKTKLTDLITALKLRHYAFGTIPNYDH”, “not soluble”. To “PETKTGKKILLAAPRGYCAGVDRAVETVERALEEYGAPIYVRKEIVHNRYVVDTLAEKGAIFVNEASEAPEGANMVFSAHGVSPMVHEEAAAKNIKAIDAACPLVTKVHKEVQRFDKQGFHILFIGHEGHEEVEGTMGHSVEKTHLVDGVAGIATLPEFLNDEPNLIWLSQTTLSVDETMEIVRELKVKFPQLQDPPSDDICYATQNRQVAVKAIAERCELMIVVGSRNSSNSVRLVEVAKQNGADNAYLVDYAREIDPAWFEGVETIGISSGASVPEILVQGVIERLAEFGYD” belongs “not soluble”; to “GPGSMEETVEHHFVEPNNISHMERHTAYATGPLDIDGGSSDSNCVLTAPSMTVTTSADGSSFVQLTEEDMQLMPEEQSISGGSYDETRTPESVNVVNS”, “not soluble”; to “MGSDKIHHHHHHMIFTLPNTTTQEIAKTLVKIRDTGGQVTTSRVLTLIVVARDTSDVEGIIRATNEASQEHPSRVIILVAGSHEGESQVDAEVRIGGDAGASEMILIKLAGRVAKHLVHVVTPLLLPDTPIVAWWPSSAPINPAEDPIGKIAQRRITDSHFDPPVDALYNRRNHYAPGDSDFSWARLTPWRGVLASSLDQAPYEMVQDVRVYGESDCPSVDLAAGWLCERLGISVERHNYGSGSAAFDDAGLAKIPVKRIELERPSGCVVIEALDDDQTLSVSIPGRSTAHVAVTRRSQADCLAEELRHLDPDIAYARALRGLSRVSYPTQ”, “not soluble”. Consider “MIHRIKDEFVNVYIIDRGDHLVLIDTGIESTCEKILKKIEELGKPLKTVIITHYHLDHTGSLKCVKDGTGAKVVAHEEEVKAIEEKTGVRVDVPVKDGDVVEGLKVFHMPGHTRGSICLLDEESGALFVGDLMVERDGKLYEVPQQYSEDPMMNRERIKELLNIEFKAIYPAHGEPVLENAKEKVKELVESFSKGETN”, for which the “soluble on expression in E. coli” value is given as “soluble”. To “MARFSGKSVIITGSSNGIGRSAAVIFAKEGAQVTITGRNEDRLEETKQQILKAGVPAEKINAVVADVTEASGQDDIINTTLAKFGKIDILVNNAGANLADGTANTDQPVELYQKTFKLNFQAVIEMTQKTKEHLIKTKGEIVNVSSIVAGPQAHSGYPYYACAKAALDQYTRCTAIDLIQHGVRVNSVSPGAVATGFMGAMGLPETASDKLYSFIGSRKECIPVGHCGKPEEIANIIVFLADRNLSSYIIGQSIVADGGSTLVMGMQTHDLMSVLSQ” belongs “soluble”; to “SEEGSNKREGYNDQKQQARAGCGKELAVEEMIAAVSERKKGCCPPPPPPHGAPATPARNRPQTQGRGAAAPVVGWPPIRSFRRNLASSSSSKHSPEPQNDNANAKVTLTCKKNPLVKINMDGIPIGRKIDLAAYNSYDGLSSAVKQLFHGFLQAQKDQTNAQIAQQGADDKIFYQLLDGSGEYTLVYEDSEGDRMLVGDVPWKVFVSTAKRLRVLRSSELSHTLIGATARV”, “soluble”; to “MAHHHHHHMSASPQLTRELSEDLLAGRYECVVCSEPVGHRQELWACSCCYGVFHLPCIRFWADSQMKARDRQLQSTSGVAVRGELERFRCPLCQSFKDKDSLAVYQCYCGKTAKPPADAMLVPGSCGQPCERRQADPCCPHRCTLLCHPGPCPACTRVREQACWCGKHSKTVGCSSSIHGYECDEACGKLLDCGEHRCKAPCHEGVCPVCTVMVTEKCYCGATVRTRRCGAAPPAFAGAAATAAADDRAAGDAGAGASVSGFRCAHHCEKKRDCDQHVCGMLCHPGLCEKCYRTPQRQKFCPCGKTRVQVERTSCMDPVPSCGLPCELPLPCGHLCWLTCHDETPCAPCKETVTVPCACGSRHVSSPCFCQYLPESEWEAARVQCGLPTDSLPVSVPPKCNQVCRHMLSCHKHRCTMTCCTDAEHTCLQICIRKLACGVHQCGRLCHQGKCPPCAHVSYERLYCRCRKTWVDPPVPCGMRPPQCNHPCSIPRPCGHPPNHPCHIEAECPKCVVLEEKPCASHQKPMPFHMPCYKKEISCGRKCGKNLPCCGKFCDLVCHIGPCEHDCAKSFPTLADVLKRGKGAAA”, “not soluble”. Turning to “MKKDIFYCEQWSYGYKKLHKPFSEKQAEEKHLKGELYTAVIGSATQPEYVITLREEVGFFSVHFFDKFGRDYLTHQFQKYSNSNYYFLSMAVWRDYITLESHDLAEGYTYFFNENTDDCYVLKEDFINNERYEKTELYSQKDKVILFPKFGEYDLVLNPDII”, the “soluble on expression in E. coli” value is recorded as “not soluble”. Turning to “MHTSILLLTALCAGAYAQFSANGQAAILNVHNTLRSRIAKGTYVAKGTAKPAASDMLKMKWDATVAASAQAYANKCPTGHSGAAGLGENLYWYWTSATITNIDQFGATGSAAWEKEFQDYGWSSNTLSMSLFNTGIGHATQMAWAKTNLIGCGVKNCGKDTNGFNKVTVVCQYKPQGNYLNQNIYTSGTTCSKCPSGTSCEAATGLCA”, the “soluble on expression in E. coli” value is “not soluble”. On to “MELATTQSVLMQIQPTIQRFARMLASVLQLEVEIVDENLCRVAGTGAYGKFLGRQLSGNSRLLRHVLETKTEKVVTQSRFDPLCEGCDSKENCREKAFLGTPVILQDRCVGVISLIAVTHEQQEHISDNLREFSDYVRHISTIFVSKLLEDQGPGDNISKIFATMIDNMDQGVLVVDDENRVQFVNQTALKTLGVVQNNIIGKPIRFRPLTFESNFTHGHMQHIVSWDDKSELIIGQLHNIQGRQLFLMAFHQSHTSFSVANAPDEPHIEQLVGECRVMRQLKRLISRIAPSPSSVMVVGESGTGKEVVARAIHKLSGRRNKPFIAINCAAIPEQLLESELFGYVKGAFTGASANGKTGLIQAANTGTLFLDEIGDMPLMLQAKLLRAIEAREILPIGASSPIQVDIRIISATNQNLAQFIAEGKFREDLFYRLNVIPITLPPLRERQEDIELLVHYFLHLHTRRLGSVYPGIAPDVVEILRKHRWPGNLRELSNLMEYLVNVVPSGEVIDSTLLPPNLLNNGTTEQSDVTEVSEAHLSLDDAGGTALEEMEKQMIREALSRHNSKKQVADELGIGIATLYRKIKKYELLNT”, for which the “soluble on expression in E. coli” value was “not soluble”.

In the case of “MAVPVQFRKPPMGGIGKKVAYYPGCSLEGAARAYDVSTRIVAKELGLELDYLEDYNCCGAMETKNVSFWGTMLLNARNMSLARRQGHNVIVAPCNGCSFSLQRVEYFLETDKNTLDRINQLLQEAGEKPLDNIPHTYHILEWFYHEAGPEKVKEKTKKPLRGLKVASYYGCLYTRPHFYARTYSHLAPEDEEQARPRKRETADDDEHPYYMEALLEAAGATSVEIEPMHTQCCGGPHSLSDEEVSEKFVMMILQTAKRNGADIIATECPLCHASLEMYRHRLMLKGVPDVDVPAAYFTQLLGLAFGYSVNDVKLKDNLSDPIPVLKRLGLA”, the “soluble on expression in E. coli” value is reported as “not soluble”.

Take “MDPFRFQVEARAGRARVGRLFTPHGAVETPLFMPVGTAGSVKGLMPKDLEAIGSQVLLTNTYHLLLRPGPERVRALGGLHGFAGWKGPWLTDSGGFQVMSLGHMRRIDEEGVVFQSHLDGRLIKLTPERSIAVQEALGADLIMAFDECPPYPSPREYLEASLERTLRWLERSLKAKTRPDQALFGIAQGGTDPELRRRSTLETIRFDLPGYAIGGLAVGEPKEAMFAMVELSTRLLPEDRPRYLMGVGHPEDLVAAMGLGVDLFDCVYPTRTGRFGSALVPEGRLNLKNARFLEDRRPLEEGCDCYTCQTFGRAYLAHLVRAGEMLGGILLSLHNLRHLHRLTEAARQAIREGRYGDFAREFARRRFGREVPPWFREALAAGGHG”: the “soluble on expression in E. coli” value is on record as “soluble”.

Values taken from the DeepSol protein solubility set.
